Data published in US20150266963A1 (ARGEN X B V, published 2015).

How the values were obtained:
[1] = target: T1, human-mouse CD70 chimera chim-2 (Flag-TNC-CD70); assay: ELISA; chimera captured by anti-Flag mAb
T1 construct: also called chimera 2
T1 chain: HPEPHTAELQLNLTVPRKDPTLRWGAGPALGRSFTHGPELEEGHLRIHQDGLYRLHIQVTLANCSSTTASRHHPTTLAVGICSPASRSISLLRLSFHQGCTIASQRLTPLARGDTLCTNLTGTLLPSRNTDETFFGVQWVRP

[2] = target: T2, human-mouse CD70 chimera chim-3 (Flag-TNC-CD70); assay: ELISA; chimera captured by anti-Flag mAb
T2 construct: also called chimera 3
T2 chain: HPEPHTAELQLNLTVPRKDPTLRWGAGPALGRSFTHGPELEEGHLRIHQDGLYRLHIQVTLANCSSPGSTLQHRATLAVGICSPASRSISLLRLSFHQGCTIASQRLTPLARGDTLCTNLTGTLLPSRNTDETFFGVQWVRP

[3] = target: T3, human CD70 expressed on the surface of cells (human, UniProt P32970 1-193); assay: FACS MFI at 37 C, HUT78 cells; reference SGN70
T3 construct: whole, on cells; also called cell surface expressed CD70; CD70 on cells
T3 sequence (looked up): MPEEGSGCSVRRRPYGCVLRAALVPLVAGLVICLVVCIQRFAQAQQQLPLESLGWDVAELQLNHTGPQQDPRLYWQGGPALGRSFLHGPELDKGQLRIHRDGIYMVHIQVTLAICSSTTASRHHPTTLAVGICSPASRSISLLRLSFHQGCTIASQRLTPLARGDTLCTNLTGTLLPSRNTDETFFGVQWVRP
Method: Several cancer cell lines were tested by FACS analysis for binding of ARGX-110 and SGN70 (described in US2010/0129362) at saturating mAb concentrations (at least 2 μg/ml). This was either done at 4° C. (1 hour incubation of cells with mAbs) or at 37° C. (15 minutes incubation of cells with mAbs). Binding was detected using anti-hIgG1-Fc-FITC (AF006, Binding Site) or anti-hIgG1-Fc-PE antibody (eBioscience, 12-4998). Fluorescence was measured using a flow cytometer.

mouse Flag-TNC-CD70 = target: T4, mouse Flag-TNC-CD70 (mouse, UniProt O55237 45-195); assay: ELISA; mouse Flag-TNC-CD70 captured by anti-Flag mAb
T4 construct: extracellular domain; also called mouse CD70; not shown: Flag tag and TNC trimerisation domain
T4 sequence (looked up): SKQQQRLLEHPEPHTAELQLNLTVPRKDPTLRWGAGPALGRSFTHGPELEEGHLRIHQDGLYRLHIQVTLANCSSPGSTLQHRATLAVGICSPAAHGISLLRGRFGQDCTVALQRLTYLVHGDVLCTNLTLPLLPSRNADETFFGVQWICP

[4] = target: cynomolgus monkey Flag-TNC-CD70 (cynomolgus monkey); assay: blocking ELISA; cynomolgus Flag-TNC-CD70; competitor CD27-Fc
Method: In this assay, a microtiter plate (Nunc Maxisorb) was first coated with 100 μl anti-FLAG M2 monoclonal antibody (Sigma Aldrich, F3165) at 1250-fold dilution in PBS (to achieve a final concentration of approximately 3.5 μg/ml) overnight at 4° C. The plate was washed once with PBS-Tween and incubated at RT for 2 hours with 300 μl PBS-1% casein. The plate was washed a further three times with PBS-Tween. 100 μl of 5 ng/ml (80 pM) Flag-TNC-CD70 (The Journal of Immunology, 2009, 183: 1851-1861) diluted in PBS-0.1% casein was added to the plate and incubated at RT for 1 hour while shaking. The plate was washed five times with PBS-Tween. The CD70 mAb to be tested was added to the plate; various concentrations were achieved by diluting the stock antibody solution in PBS-0.1% casein. Immediately thereafter, 50 μl of 1 μg/ml (final concentration 6.5 nM) recombinant human CD27 Fc chimera (R&D systems 382-CD, MW=46.5 kDa) was added, and incubated at RT for 1 hour while shaking. The plate was washed five times with PBS Tween. 100 μl of biotinylated anti-CD27 (eBioscience 13-0271), diluted 500-fold in PBS-0.1% casein, was added, and the plate incubated at RT for a further hour, while shaking. The plate was washed five times with PBS Tween. […] 100 μl TMB was added to the plate and the OD at 620 nm was measured. […]

[5] = target: T5, recombinant human CD70 (Flag-TNC-CD70) (human, UniProt P32970 39-193); assay: ELISA; Flag-TNC-CD70 captured by anti-Flag mAb; anti-human-Fc-HRP
T5 construct: extracellular domain; Captured by anti-Flag mAb in ELISA; as 'recombinant human CD70' immobilised on Biacore CM5 chips; TNC is for trimerisation; also called recombinant CD70; human recombinant CD70; not shown: Flag tag and TNC trimerisation domain
T5 sequence (looked up): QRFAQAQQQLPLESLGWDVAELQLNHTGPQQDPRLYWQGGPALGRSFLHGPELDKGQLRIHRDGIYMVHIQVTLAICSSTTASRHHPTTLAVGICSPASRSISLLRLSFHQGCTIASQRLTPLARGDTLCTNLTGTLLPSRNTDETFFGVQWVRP
Method: A Maxisorb (Nunc) microtiter plate was coated with 3.5 μg/ml mouse M2 anti-Flag mAb (Sigma Aldrich, F3165) and the different chimeras were captured. A dilution series of the CD70 mAbs to be tested was applied starting at a concentration of 10 μg/ml and making 3-fold dilutions. After 2 hours, binding was detected using anti-human-Fc-HRP at a 16000-fold dilution. Staining was done with ABTS and OD at 405 nm was measured. As a positive control, CD27-Fc was applied which is able to bind to both human and mouse CD70 with good affinity as well as to the chimeric human-mouse CD70 variants.

B1: ARGX-110 (non-fucosylated 41D12 human IgG1) (antibody, V domains shown)
VH: EVQLVESGGGLVQPGGSLRLSCAASGFTFSVYYMNWVRQAPGKGLEWVSDINNEGGTTYYADSVKGRFTISRDNSKNSLYLQMNSLRAEDTAVYYCARDAGYSNHVPIFDSWGQGTLVTVSS
VL: QAVVTQEPSLTVSPGGTVTLTCGLKSGSVTSDNFPTWYQQTPGQAPRLLIYNTNTRHSGVPDRFSGSILGNKAALTITGAQADDEAEYFCALFISNPSVEFGGGTQLTVLG
notes: also called 41D12 (ARGX-110)
B1 was tested, and the binding result [1] was “no binding (tested: dilution series from 10 µg/ml)”, the binding result [2] was “no binding (tested: dilution series from 10 µg/ml)” and the “Signal in FACS of ARGX-110/signal in FACS of SGN70” value [3] was 1 ratio. For the same binder, the binding result (mouse Flag-TNC-CD70) was “no binding (tested: dilution series from 10 µg/ml)”, the IC50 [4] was 0.048 µg/mL and the EC50 [5] was 0.022 µg/mL.
